Reference: patent US20100043097

How the values were obtained:
[1] = molecular target: GST tagged BRK1-S230A
[2] = molecular target: GST-BRK1
Chain of GST-BRK1 (chain, as listed by the source): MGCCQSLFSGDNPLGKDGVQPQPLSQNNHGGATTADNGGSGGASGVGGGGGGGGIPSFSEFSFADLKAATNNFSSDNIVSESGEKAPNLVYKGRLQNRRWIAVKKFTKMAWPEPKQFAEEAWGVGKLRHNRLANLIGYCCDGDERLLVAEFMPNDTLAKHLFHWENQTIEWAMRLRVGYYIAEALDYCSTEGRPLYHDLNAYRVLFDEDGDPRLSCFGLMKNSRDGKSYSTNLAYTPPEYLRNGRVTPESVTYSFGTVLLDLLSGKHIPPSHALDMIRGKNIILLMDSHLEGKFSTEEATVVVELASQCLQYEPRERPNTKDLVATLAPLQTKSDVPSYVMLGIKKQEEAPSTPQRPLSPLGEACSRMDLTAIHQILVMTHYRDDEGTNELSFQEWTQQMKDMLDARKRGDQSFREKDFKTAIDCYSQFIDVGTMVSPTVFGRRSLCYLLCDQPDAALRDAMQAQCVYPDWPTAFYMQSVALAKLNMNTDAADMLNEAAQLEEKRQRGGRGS

B1: GST-BRI1-KD (protein)
chain: REMRKRRRKKEAELEMYAEGHGNSGDRTANNTNWKLTGVKEALSINLAAFEKPLRKLTFADLLQATNGFHNDSLIGSGGFGDVYKAILKDGSAVAIKKLIHVSGQGDREFMAEMETIGKIKHRNLVPLLGYCKVGDERLLVYEFMKYGSLEDVLHDPKKAGVKLNWSTRRKIAIGSARGLAFLHHNCSPHIIHRDMKSSNVLLDENLEARVSDFGMARLMSAMDTHLSVSTLAGTPGYVPPEYYQSFRCSTKGDVYSYGVVLLELLTGKRPTDSPDFGDNNLVGWVKQHAKLRISDVFDPELMKEDPALEIELLQHLKVAVACLDDRAWRRPTMVQVMAMFKEIQAGSGIDSQSTIRSIEDGGFSTIEMVDMSIKEVPEGKL
in vitro kinase assay (32P autoradiography), reduction of phosphorylation [1]: a S230A mutation reduced the phosphorylation by 82%
mass spectrometry of BRI1-phosphorylated BRK1 [2]: identified serine 230 of BRK1 as a BRI1 phosphorylation site
